The record followed here is patent US20230174642A1, “AFFINITY-MATURATED ANTI-ASIC1a ANTIBODIES” (SHANGHAITECH UNIVERSITY, priority 2019, published 2023).

T1: recombinant extracellular domain of hASIC1a (hASIC1a-ECD) (human, UniProt P78348 67-427, limits assumed)
T1 construct: extracellular domain; ASIC1a is one splice isoform of it; also called trimeric ectodomain of hASIC1a
T1 sequence (looked up): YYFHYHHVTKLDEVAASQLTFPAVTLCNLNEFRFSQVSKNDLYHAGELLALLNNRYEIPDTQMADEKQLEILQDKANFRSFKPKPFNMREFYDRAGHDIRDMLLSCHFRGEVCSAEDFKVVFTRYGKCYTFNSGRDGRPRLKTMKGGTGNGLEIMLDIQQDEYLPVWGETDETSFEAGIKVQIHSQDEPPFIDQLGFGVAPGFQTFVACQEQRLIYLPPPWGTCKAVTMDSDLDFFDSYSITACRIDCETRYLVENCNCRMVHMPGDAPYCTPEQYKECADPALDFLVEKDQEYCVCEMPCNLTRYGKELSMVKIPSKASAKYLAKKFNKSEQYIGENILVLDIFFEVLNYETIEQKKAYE

T2: rat ASIC1a (rASIC1a-eYFP) (Rattus norvegicus, UniProt P55926)
T2 construct: expressed in transfected cells; host or cells: CHO-K1 (transient)
T2 sequence (P55926 1-526): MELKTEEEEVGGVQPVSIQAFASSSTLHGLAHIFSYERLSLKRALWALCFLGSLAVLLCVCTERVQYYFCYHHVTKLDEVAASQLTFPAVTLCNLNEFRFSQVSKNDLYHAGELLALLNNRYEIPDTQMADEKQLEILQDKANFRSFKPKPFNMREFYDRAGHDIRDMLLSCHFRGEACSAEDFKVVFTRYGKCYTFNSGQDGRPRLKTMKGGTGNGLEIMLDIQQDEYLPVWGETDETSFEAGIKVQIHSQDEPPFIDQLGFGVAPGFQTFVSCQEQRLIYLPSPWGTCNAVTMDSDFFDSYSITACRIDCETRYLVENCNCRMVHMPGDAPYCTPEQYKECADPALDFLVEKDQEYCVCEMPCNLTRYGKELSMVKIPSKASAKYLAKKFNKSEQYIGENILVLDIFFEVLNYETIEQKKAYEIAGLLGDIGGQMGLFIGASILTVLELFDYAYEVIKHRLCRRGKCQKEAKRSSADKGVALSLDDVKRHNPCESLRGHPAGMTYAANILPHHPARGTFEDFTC

T3: human ASIC1a (hASIC1a-eYFP) (Homo sapiens, UniProt P78348)
T3 construct: expressed in transfected cells; host or cells: CHO-K1 (transient)
T3 sequence (P78348 1-528): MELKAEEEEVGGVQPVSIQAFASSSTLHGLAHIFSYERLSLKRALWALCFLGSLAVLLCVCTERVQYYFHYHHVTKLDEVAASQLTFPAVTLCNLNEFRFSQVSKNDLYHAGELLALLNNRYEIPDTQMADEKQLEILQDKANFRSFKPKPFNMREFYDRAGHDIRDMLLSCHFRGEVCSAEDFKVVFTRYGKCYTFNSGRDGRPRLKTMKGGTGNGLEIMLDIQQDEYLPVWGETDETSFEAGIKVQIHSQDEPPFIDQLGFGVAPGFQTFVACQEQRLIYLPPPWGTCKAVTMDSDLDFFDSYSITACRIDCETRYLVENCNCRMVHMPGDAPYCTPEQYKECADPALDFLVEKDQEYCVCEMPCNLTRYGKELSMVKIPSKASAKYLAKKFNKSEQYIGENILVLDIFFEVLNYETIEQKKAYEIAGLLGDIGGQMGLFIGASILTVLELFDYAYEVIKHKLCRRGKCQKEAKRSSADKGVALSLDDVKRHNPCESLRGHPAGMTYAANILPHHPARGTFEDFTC

T4: mouse ASIC1a (mASIC1a-eYFP) (Mus musculus, UniProt Q6NXK8)
T4 construct: expressed in transfected cells; host or cells: CHO-K1 (transient)
T4 sequence (Q6NXK8 1-526): T2 sequence (P55926 1-526) with S476N

T5: hASIC1a on CHO-K1 cells stably expressing hASIC1a (human, UniProt P78348 1-528)
T5 sequence (looked up): T3 sequence (P78348 1-528)

B1: ASC06-03-IgG1 (antibody, V domains shown)
VH: QVQLQQSGGGLVQPGGSLRLSCAASGFTFSSYAMSWVRQAPGKGLEWVSAISGSGGSTYYADSVKGRFTISRDNSKNTLYLQMNSLRAEDTAVYYCAKDSFYGRAKGSWGQGTLVTVSS
VL: QSALTQPASVSGSPGQSITISCTGTSSDVGAYNYVSWYQQQPGKAPKLMIYGVSNRPSGVSNRFSGSKSGNAASLTISGLQAEDEADYYCSSYTSSSTYVFGTGTKLTVLG
notes: Full length IgG1
B2: ASC06-01-IgG1 (antibody, V domains shown)
VH: B1 VH with F101Y, Y102F, R104Y, A105S, S108D
VL: B1 VL
notes: Full length IgG1
B3: ASC06-IgG1 (antibody, V domains shown)
VH: B1 VH with R104Y, A105S, S108D
VL: B1 VL
notes: Tested as full length IgG1; also called WT antibody ASC06-IgG1; parental ASC06-IgG1 antibody
B4: ASC06-02-IgG1 (antibody, V domains shown)
VH: B1 VH with Y102F
VL: B1 VL
notes: Full length IgG1
B5: ASC06-04-IgG1 (antibody, V domains shown)
VH: B1 VH with S108V
VL: B1 VL
notes: Full length IgG1
B6: ASC06-IgG1: parental (WT) ASIC1a-specific antagonist antibody; VL SEQ ID NO: 2, VH SEQ ID NO: 7, VH-CDR3 DSFYGYSKGD (antibody, V domains shown)
VH: B1 VH with R104Y, A105S, S108D
VL: B1 VL
modifications: IgG1 constant regions; Amino acid sequence VH of ASC06; Amino acid sequence VL of ASC06
B7: ASC06-04-IgG1: affinity-matured ASC06 derivative, VH-CDR3 DSFYGRAKGV (SEQ ID NO: 17) (antibody, V domains shown)
VH: B1 VH with S108V
VL: B1 VL
B8: ASC06-02-IgG1: affinity-matured ASC06 derivative, VH-CDR3 DSFFGRAKGS (SEQ ID NO: 13) (antibody, V domains shown)
VH: B1 VH with Y102F
VL: B1 VL
B9: ASC06-03-IgG1: affinity-matured ASC06 derivative, VH-CDR3 DSFYGRAKGS (SEQ ID NO: 15) (antibody, V domains shown)
VH: B1 VH
VL: B1 VL
B10: ASC06-01-IgG1: affinity-matured ASC06 derivative, VH-CDR3 DSYFGYSKGD (SEQ ID NO: 11) (antibody, V domains shown)
VH: B1 VH with F101Y, Y102F, R104Y, A105S, S108D
VL: B1 VL

Positions count from the first letter of the chain named.

The target in one experiment is T1, recombinant extracellular domain of …. The experiment in a line: SPR, Biacore T200, hASIC1a-ECD immobilized, IgG1 as analyte.
Details: not given
The procedure: Binding affinities of four affinity-matured antibodies in IgG1 format (ASC06-01-IgG1 through ASC06-04-IgG1) to the recombinant extracellular domain of hASIC1a(hASIC1a-ECD) were measured using the Biacore T200™ (GE Healthcare). The ASC06-IgG1 antibody was used as a positive control. All manipulations were followed by the user guide of manufacturer. Briefly, was hASIC1a was immobilized, and serial dilutions of the indicated antibodies were added as analytes. The analysis of the results were processed in BIA Evaluation Software™.
For orientation: Surface plasmon resonance follows binding to a sensor surface in real time, without labels.
Consider B1, for which the Kd (in general, the equilibrium constant for the complex coming apart) worked out at 0.12 nM; the koff (in general, a measure of how fast the partners let go of each other) was 8.2e-05 s⁻¹; the kon (usually the rate constant with which the complex forms) amounted to 680000 M⁻¹ s⁻¹.

In the case of B2, the Kd was found to be 0.1 nM, the koff was determined as 0.000997 s⁻¹ and the kon was 9.7e+06 M⁻¹ s⁻¹.

Regarding B3, the dissociation constant Kd worked out at 0.28 nM, the koff was found to be 0.0013 s⁻¹ and the on-rate constant (kon) is 4.7e+06 M⁻¹ s⁻¹.

With B4, the Kd was 0.0125 nM, the koff was 0.000168 s⁻¹ and the kon worked out at 1.3e+07 M⁻¹ s⁻¹.

As for B5, the Kd was 0.26 nM, the off-rate (koff) amounted to 0.000163 s⁻¹ and the kon came to 620000 M⁻¹ s⁻¹.

A further experiment addresses T2, rat ASIC1a (rASIC1a-eYFP). Kind of experiment: FACS-based binding assay, transiently transfected CHO-K1 cells (species selectivity). To be noted: double positive population. As to the method: (§1) To investigate the species selectivity of ASC06-IgG1 affinity-matured antibodies, plasmids encoding fusion proteins of eYFP with […] homologs of ASIC1a were constructed. These plasmids included those encoding human ASIC1a (hASIC1a-eYFP), mouse ASIC1a (mASIC1a-eYFP), and rat ASIC1a (rASIC1a-eYFP). CHO-K1 cells were transiently transfected with the ASIC1a-eYFP plasmids, and a fluorescence activated cell sorting (FACS)-based binding assay was carried out to determine binding to the homologs or isoforms of ASIC1a expressed on the cell surface. An isotype control was used as a negative control for binding (NC). ASC06-IgG1 was used as a positive control. Summarily, the CHO-K1 cells expressing the ASIC1a-eYFP (green) homologs were stained with the indicated antibody (red) and subjected to FACS.
Turning to B6, the “binding to cells expressing rASIC1a-eYFP” value is on record as “bound”.

B7: the “binding to cells expressing rASIC1a-eYFP” value is “bound”.

Take B8: the “binding to cells expressing rASIC1a-eYFP” value is reported as “bound”.

On to B9, for which the “binding to cells expressing rASIC1a-eYFP” value was “bound”.

Turning to B10, the “binding to cells expressing rASIC1a-eYFP” value was “bound”.

A further experiment deals with T3, human ASIC1a (hASIC1a-eYFP). Described as above. The settings on record: double positive population. The procedure: as §1
As for B6, the “binding to cells expressing hASIC1a-eYFP” value is given as “bound”.

With B7, the “binding to cells expressing hASIC1a-eYFP” value is on record as “bound”.

Turning to B8, the “binding to cells expressing hASIC1a-eYFP” value was “bound”.

Take B9: the “binding to cells expressing hASIC1a-eYFP” value was “bound”.

Regarding B10, the “binding to cells expressing hASIC1a-eYFP” value was “bound”.

The next experiment deals with T4, mouse ASIC1a (mASIC1a-eYFP). The experiment is described as above. To be noted: double positive population. The procedure:
as §1
On to B6, for which the “binding to cells expressing mASIC1a-eYFP” value was “bound”.

Take B7: the “binding to cells expressing mASIC1a-eYFP” value was “bound”.

As for B8, the “binding to cells expressing mASIC1a-eYFP” value is “bound”.

On to B9, for which the “binding to cells expressing mASIC1a-eYFP” value is reported as “bound”.

Take B10: the “binding to cells expressing mASIC1a-eYFP” value is “bound”.

A further experiment concerns the target T5, hASIC1a on CHO-K1 cells stably …. The experiment in a line: cell-based or functional assay.
Details: not given
Consider B2, for which the “IC50 for the inhibition of ASIC1a currents, FMP assay” value (from here on “IC50 for the inhibition”) was found to be 74 nM.

With B3, the “IC50 for the inhibition” value was 251 nM.

On to B4, for which the “IC50 for the inhibition” value came to 30.5 nM.

For the molecule B5, the “IC50 for the inhibition” value stood at 51.8 nM.

For the next experiment the target is unchanged. Kind of experiment: cell-based or functional assay.
Details: not given
The source holds these as a separate data set.
For the molecule B1, the “Percent inhibition of the acid induced-hASIC1a currents, 30 nM antibody (Patch Clamp)” value amounted to 79.4% and the “Percent inhibition of the acid induced-hASIC1a currents, 100 nM antibody (Patch Clamp)” value came to 89.7%.

On to B2, for which the “Percent inhibition of the acid induced-hASIC1a currents, 30 nM antibody (Patch Clamp)” value is 20% and the “Percent inhibition of the acid induced-hASIC1a currents, 100 nM antibody (Patch Clamp)” value is 49%.

As to B3, the “Percent inhibition of the acid induced-hASIC1a currents, 30 nM antibody (Patch Clamp)” value was found to be 35.5% and the “Percent inhibition of the acid induced-hASIC1a currents, 100 nM antibody (Patch Clamp)” value was found to be 55.5%.

As to B4, the “Percent inhibition of the acid induced-hASIC1a currents, 30 nM antibody (Patch Clamp)” value was determined as 94.6% and the “Percent inhibition of the acid induced-hASIC1a currents, 100 nM antibody (Patch Clamp)” value stood at 97.2%.

Regarding B5, the “Percent inhibition of the acid induced-hASIC1a currents, 100 nM antibody (Patch Clamp)” value was 96.7%.
